One test concerns the target T1, SpyTag-MBP.
T1 construct: Fusion of SpyTag and MBP
The test can be described thus: ITC, monomeric SpySwitch, pH 7.5, 5 °C; ITC, pH 7.5, 5 C.

A further test addresses T2, SpyTag003-MBP.
T2 construct: Fusion of SpyTag003 and MBP
The test is described as above.

B1: SpySwitch (designed binder)
chain: MSYYHHHHHHGSGGSGAMVTTLSGLSGEQGPSGDMTTEEDSATHIHFHKHDEDGRELAGATMELRDCSGKTISTWITDGHVKDFYLYPGKYTFVATAAPDGHHVATPIEFTINEDGQVTVDGEATEGDPHTGSSGS
notes: also called SpySwitch resin; monomeric SpySwitch
One may read the Kd as the equilibrium constant for the complex coming apart. On to B1, for which, in the test with SpyTag-MBP, binding was characterised by a dissociation constant (Kd) of 1100 nM and the stoichiometry came out at 1. In the test with SpyTag003-MBP, the Kd was 1500 nM and the stoichiometry was 1.

Values taken from patent US20250002528A1 (OXFORD UNIVERSITY INNOVATION, published 2025).
